These results are taken from the DeepSol protein solubility set.

This data set is described as follows: soluble on expression in E. coli; label from the status in PepcDB or PDB records.
As to “MKFGIVARRDKEEALKLAYRVYDFLKVHGYEVVVDKETYEHFPHFKEGDVIPLDEFDVDFIVAIGGDGTILRIEHMTKKDIPILSINMGTLGFLTEVEPSDTFFALNRLIEGEYYIDERIKVRTYIDGENRVPDALNEVAILTGIPGKIIHMKYYVDGGLADEVRADGLVVSTPTGSTGYAMSAGGPFIDPRLDVILIAPLLPLPKTSVPMVIPGSSRIDIRMLTDREIILAIDGQYYEHLPPNVEITVVKSPRKTKFIRFTREIYPKYTIRIKERHMAGDPLEHHHHHH”, the “soluble on expression in E. coli” value is “not soluble”.
The result for “MVEKPKDIKIAQESFPILVAENIYHCGYHSEKSYGAASYLIQHSQGNILVDSPRFTPPLVKRIEAMGGIKYMYLTHQDDVADHQKFAEHFQCQRILHTDEISAGTRNVEIQLTGLEPFPLQPDVLIIPVPGHTKGHTVLLYKNKFLFTGDHLAWSENRHQLTAFRDVCWYSWAEQIKSMRRLADYSFDWVLPGHGRRFHADVETMRQQMHKCIELMTDERQPLTFNSLEHHHHHH” reads “soluble”; that for “EVQLQQSGPELVKPGTSVKMSCKASGYTFTDYYMKWVKHSHGKSLEWIGDINPSNGGTLYNQKFKGKATLTVDKSSSTASMQLSRLTSEDSAVYYCSRGDGIHGGFAYWGQGTTVTVSSAKTTAPSVYPLAPVCGDTTGSSVTLGCLVKGYFPEPVTLTWNSGSLSSGVHTFPAVLQSDLYTLSSSVTVTSSTWPSQSITCNVAHPASSTKVDKKIVPQV”, “soluble”; that for “MPDRPQHPTASRQSSMVSWNHGAAGWLHCVQCGSATNPTACLDWLPPIHARSGPMYAEHDVVVLTRDVPDKSLIAGDVGAVVGRYAAGGYEVDFTAANGCTVAVVTLAGDDIRPRRRREIPHVREVA”, “not soluble”.
The result for “MGSDKIHHHHHHMSEKQTTILIINMASDFGGGEIQTEELMLNLTNYNICFFGKSSGKFIPRLKEKAPHIKIVNLWEMLKLVFCCSSLIIHAQDGRGAHIAGFLKKISGRPVVITRHVSFPFKRKFSLSSYKNADMLVGVSQQVTENLKLLNSNCRTIYGCIKPLLENAEFEQRYFVKKHILAIAHIGNLQAVKNFQLTLSLAKNFSQIQFFIVGSGELEQELKQQAINLPNITFIPFTPYIGSVFKKVDLQIVPSHSEGLGAVILEGYQYRVSVIAHQTGGISEIVQNEKTGFLVENNDPMIYHKILTTLLDNPQKLCELKQNVERYIFEHDFSARRMALEYEQVYSAILANRTQK” reads “not soluble”; that for “MGLWYRMLENQDLEEVITVRVQDPRVQNEGSWNSYVDYKIFLHTNSKAFTAKTSCVRRRYREFVWLRKQLQRNAGLVPVPELPGKSTFFGGSDEFIEKRRQGLQHFLEKVLQSVVLLSDSQLHLFLQSQLSVPEIEACVQGRGAMTVSDAILSYAMSNCGWAQEERQSTSHLAKGDQLNSCCFLPRSGRRSSPSPPLSEEKEQLETWAPVMDSEGPSSESPTLLPSSSLPACWDPARPEEGLSVSQPARRAVAADQAGPMEPTQLDTAWDK”, “soluble”; that for “MGSDKIHHHHHHMNILIVYGTTEGQTGKIAARTATHLRERGHQVELRDSAALASDLKLGHFDAFVIAASVHQEHHQETVTNFVFAHHEALSTKPSALISVSLSAALGDQKKDAQKYVDRFVSVTDWQPSMTLLLGGALRFNKYDYFQEQFVKFVVMKSGDPSPERDHEFTDWNALANFADRFLETAG”, “not soluble”.
“MSLRLPMGLVAVLALVGTAAHAAPKGAEARMIATVDAEQARTLRFLEVMVNQNSGSRNLEGVRRLRDIVVPEFTALGFTSRWIPMERTGRAGHLVLTHKGRQGAKKLLLIGHLDTVFEPDSPFQTYVLNGEKATGPGVGDDKGGIAVILAAVRAMNAAGTLKGASIEVFLTGDEEEAGSPTEVARADLVAAARAADVALDFEGLSRENGRDMGSIARRSSQSWSLTVEAKSGHSSGVWGANAGDGAIYAAAKIVNAFRTELPEPWLTLNVGLIAGGAEAEVAEDNAHVSAQGKTNIIPGEVIARGDLRTLSPEQNRAAMRKMEEIVGRPYPGVTSARIAFSEGYPPMAPTEGNKALLARLNQVNATLGLPEMQPLDPMKRGAGDISFVAEYIDGLVGLGPHSTGDHAPGETVDVPSIWTQAKRAALLMTRLSAEKSAREGHHHHHH”: the “soluble on expression in E. coli” value is given as “soluble”.
To “MGEAAYVTVSALTKYIKRKFDVDPHLENIWIKGELSNVKIHTRGHIYFTLKERKGRMQSVMFARQSERLPFKPENGMKVLVRGGISVYEPSGNYQLYAKEMQPDGVGALYLAYEELKKKLAGEGLFDDRYKKQIPAFPATIGVVTSPTGAAVRDVITTLKRRYPLVKVIVLPALVQGENASRSIVTRIEEANEKEICDVLIVGRGGGSIEELWAFNEEIVARAIFASNIPIISAVGHETDFTISDFVADIRAATPTGAAEIAVPHTTDLIERTKTAEVRMTRAMQQHLGQEKGRIQTLQSSYAFRFPKRLYAQKEQQFDLAYQQFQAQLTALLDRKSRQLERETYRLEALHPHEQLKQARTRYQEQTNQLRKNMNIQMKQLHSQFQTVLGKLNALSPLQVMERGYSLAYKEDKLIKSVSQIEEQDRLEIKLKDGVLTCEVLEKRGEEK” belongs “not soluble”; to “MRRLGKQEIEDIAVGAALLGTGGGGDPYIGKLMALQAIEEYGPIQLLSVDEIDDEAVVVPSGMMGAPTVMIEKVPNGEEAIAAFQTLEQYLGKKIFATMPIEAGGINSLLPLALAARLGLPVVDVDGMGRAFPELQMVTFYLDGISATPLVIADEKGNHSVLNTVNNMWAERIARAATIQMGGSVMMAIYPMVGKQLKESGIHHILKLEEDIGRIIREAKGTNANPIAEVLSLVGGFELFKGKVVDINRKTESGFARGTAHIQGFDLYHDQTLEIKFQNEHLLAKTPDQLLCVTPDLIAILDSETGLPITTEGLKYGARCVVIGIPCHPKWRTAKGIETCGPAYFGYDVDYVPVENLVKEGAQTKLEHHHHHH”, “soluble”.
To “MSLRLKWEGTFADYLEIIKENPMVAQSAHSRVFNMIKDSGIEEIDGRKKYSFFDRELFGLEESLERLVEEYFHPAAKRLDVRKRILLLMGPVSGGKSTLVTMLKKGLEAYTLTDNGAVYAIKGCPMHEDPLHLIPHHLRDDFYREYGIRIEGSLSPLNVMRLEEEYGGRIEDVKVERIFFSEDKRTGIGTFSPSDPKSQDIADLTGSIDFSTIAEYGSESDPRAYRFDGELNKANRGMMEFQEMLKCDEKFLWHLLSLTQEGNFKAGRFALISADELIVAHTNETEYRSFISNKKNEALHSRIIVMPVPYNLKVSEEERIYEKMIAESDVADVHIAPHTLKVAAMFSILTRLKEPKRSDIDLVKKMRLYDGESVEGYNSVDVEDMKKEYNDEGMSGIDPRYVINRISSTIIRKNMESINSLDVLRSLKEGLDQHPSISSEDRERYLNFISAARKEYDDIAKKEVQKAFVYSYEESAKTLMDNYLDNVEAYCNKNKLRDPLTGEEMNPDEKLMRSIEEQIGISENAKKAFREEILIRISAYARKGKRFDYNSHERLREAIQKKLFADLKDVVKITTSTKTPDEQQLKKVNEVVARLIDEHGYNSTSANELLKYVGSLLNREGHHHHHH” belongs “soluble”; to “EGGDFVVGMVTDSGDIDDKSFNQQVWEGISRFAQENNAKCKYVTASTDAEYVPSLSAFADENMGLVVACGSFLVEAVIETSARFPKQKFLVIDAVVQDRDNVVSAVFGQNEGSFLVGVAAALKAKEAGKSAVGFIVGMELGMMPLFEAGFEAGVKAVDPDIQVVVEVANTFSDPQKGQALAAKLYDSGVNVIFQVAGGTGNGVIKEARDRRLNGQDVWVIGVDRDQYMDGVYDGSKSVVLTSMVKRADVAAERISKMAYDGSFPGGQSIMFGLEDKAVGIPEENPNLSSAVMEKIRSFEEKIVSKEIVVPVRSARMMN”, “soluble”.
The result for “MGSDKIHHHHHHGQPSNDKKNVLPDWAFGGFERPQGANPVISPIENTKFYCPMTQDYVAWESNDTFNPAATLHDGKIVVLYRAEDKSGVGIGHRTSRLGYATSSDGIHFKREKTPVFYPDNDTQKKLEWPGGCEDPRIAVTAEGLYVMTYTQWNRHIPRLAIATSRNLKDWTKHGPAFAKAYDGKFFNLGCKSGSILTEVVNGKQVIKKIDGKYFMYWGEEHVFAATSEDLVNWTPYVNTDGSLRKLFSPRDGHFDSQLTECGPPAIYTPKGIVLLYNGKNSASRGDKRYTANVYAAGQALFDANDPTRFITRLDEPFFRPMDSFEKSGQYVDGTVFIEGMVYYKDKWYLYYGCADSKVGMAIYNPKKPAAADPLP” reads “not soluble”; that for “EVQLQESGPSLVKPSQTLSLTCSVTGDSVTSDFWSWIRKFPGNKLEYMGYISYSGSTYYHPSLKSRISITRDTSKNQYYLQLNSVTTEDTATYYCASWGGDVWGAGTTVTVSSAKTTAPSVYPLAPVCGDTTGSSVTLGCLVKGYFPEPVTLTWNSGSLSSGVHTFPAVLQSDLYTLSSSVTVTSSTWPSQSITCNVAHPASSTKVDKKI”, “soluble”; that for “MGSDKIHHHHHHMTEQNQKQLGNTLWSIADQLRGAMDADDFRDYMLSFLFLRYLSDNYETAAKKELGRDYPDVGGDARKVPLALWYANNVDDIPAFEKQMRRKVHYVIQPAHLWNSIANLARTQNPDLLDTLQAGFKYIETESFESTFQGLFSEIDLSSPKLGKSYSDRNAKLCTIIQKIAEGLAAFSTNIDALGDAYEYLIGQFAAGSGKKAGEFYTPQQISDILSAIVTLDSQEPKTGTKKRLDSVLDFACGSGSLLLNVRKKVNQAGGSIGKIYGQEKNITTYNLARMNMLLHGVKDTEFEIFHGDTLLNEWDMLREQNPARKPSFDAVVANPPFSYRWEPTDALADDVRFKSHGLAPKSAADFAFLLHGFHYLKDEGVMAIILPHGVLFRGGAEERIRTKLLKDGHIDTVIGLPANLFYSTGIPVCILVLKKCKKPDDVLFINAAEHFVKGKRQNHLSDEHIAKIIETYQFRTEEPRYARRVDMAEIEKNDFNLNISRYISTAVDEEEIDLTATHANLVNIEKAIQQATAKHNEFLKELGMPLLP”, “not soluble”.
With “MKDKIIDNAITLFSEKGYDGTTLDDIAKSVNIKKASLYYHFDSKKSIYEQSVKCCFDYLNNIIMMNQNKSNYSIDALYQFLFEFIFDIEERYIRMYVQLSNTPEEFSGNIYGQIQDLNQSLSKEIAKFYDESKIKMTKEDFQNLILLFLESWYLKASFSQKFGAVEESKSQFKDEVYSLLNIFLKK”, the “soluble on expression in E. coli” value is “not soluble”.
The result for “MGSDKIHHHHHHMTYTSLQSPADKDYLYDIRVAHLYGNLLNTYGDNGNVLMLKYVGEKLGIRMTFDIVSIGDDFDANKYDMVFFGGGQDYEQSIVAKDLPNKRSAIASFIQNNKVVLAICGGFQLLGQYYVQANGVRIDGIGVMGHYTLNQKDNRYIGDIKIHNDEFNETYYGFENHQGRTFLSDDEKPLGRVIYGNGNNKEDGSEGVHYKNVFGSYFHGPILSRNANLAYRLVTTALHNKYGIDIQLPRYEDILSLEVAEEYGDVKSKAEFEK” reads “not soluble”.
The result for “MGSDKIHHHHHHMISMKIQQILPADPAKAILIGRIWDPVSQGPRVVSVRGEDVFDLSPGVRTVAELMEYENPLEVVLQRTDAPRWDLAEIVEASQGTDRNRPHLLAPIDLQVVKACGVTFVESMIERVIEERCGGDFTRAAEVRKAVADVLGGSLDSVRPGSEQAREAKRILSAQGMWSQYLEVGLGPDPEVFTKAPVLSSVGYGSGVGIPSFSSWNNPEPELVLILNSAGDPLGATLGNDVNLRDVEGRSALLLGMAKDNNASCAIGPLIRLFHKDFTLESLRTEEITLTVEGTDGYRMEGRNSVARISRSFEELIKAAHGSHHQYPDGFALFTGTLFAPTQDRDTEGLGFTHKNGDIVTISSPQLGTLINQTQSTEETEPWTFGITALFRYLAQTGTGGAPSITGSPVSAAPGKSAGMKIGFRN” reads “not soluble”.
